Measured values as given in US20220356229A1 (published 2022).
Substitutions are numbered along the chain they refer to.

Key:
[1] = biological target: T1, HKU1 full length Spike (human coronavirus HKU1, UniProt Q5MQD0 13-1276)
T1 sequence: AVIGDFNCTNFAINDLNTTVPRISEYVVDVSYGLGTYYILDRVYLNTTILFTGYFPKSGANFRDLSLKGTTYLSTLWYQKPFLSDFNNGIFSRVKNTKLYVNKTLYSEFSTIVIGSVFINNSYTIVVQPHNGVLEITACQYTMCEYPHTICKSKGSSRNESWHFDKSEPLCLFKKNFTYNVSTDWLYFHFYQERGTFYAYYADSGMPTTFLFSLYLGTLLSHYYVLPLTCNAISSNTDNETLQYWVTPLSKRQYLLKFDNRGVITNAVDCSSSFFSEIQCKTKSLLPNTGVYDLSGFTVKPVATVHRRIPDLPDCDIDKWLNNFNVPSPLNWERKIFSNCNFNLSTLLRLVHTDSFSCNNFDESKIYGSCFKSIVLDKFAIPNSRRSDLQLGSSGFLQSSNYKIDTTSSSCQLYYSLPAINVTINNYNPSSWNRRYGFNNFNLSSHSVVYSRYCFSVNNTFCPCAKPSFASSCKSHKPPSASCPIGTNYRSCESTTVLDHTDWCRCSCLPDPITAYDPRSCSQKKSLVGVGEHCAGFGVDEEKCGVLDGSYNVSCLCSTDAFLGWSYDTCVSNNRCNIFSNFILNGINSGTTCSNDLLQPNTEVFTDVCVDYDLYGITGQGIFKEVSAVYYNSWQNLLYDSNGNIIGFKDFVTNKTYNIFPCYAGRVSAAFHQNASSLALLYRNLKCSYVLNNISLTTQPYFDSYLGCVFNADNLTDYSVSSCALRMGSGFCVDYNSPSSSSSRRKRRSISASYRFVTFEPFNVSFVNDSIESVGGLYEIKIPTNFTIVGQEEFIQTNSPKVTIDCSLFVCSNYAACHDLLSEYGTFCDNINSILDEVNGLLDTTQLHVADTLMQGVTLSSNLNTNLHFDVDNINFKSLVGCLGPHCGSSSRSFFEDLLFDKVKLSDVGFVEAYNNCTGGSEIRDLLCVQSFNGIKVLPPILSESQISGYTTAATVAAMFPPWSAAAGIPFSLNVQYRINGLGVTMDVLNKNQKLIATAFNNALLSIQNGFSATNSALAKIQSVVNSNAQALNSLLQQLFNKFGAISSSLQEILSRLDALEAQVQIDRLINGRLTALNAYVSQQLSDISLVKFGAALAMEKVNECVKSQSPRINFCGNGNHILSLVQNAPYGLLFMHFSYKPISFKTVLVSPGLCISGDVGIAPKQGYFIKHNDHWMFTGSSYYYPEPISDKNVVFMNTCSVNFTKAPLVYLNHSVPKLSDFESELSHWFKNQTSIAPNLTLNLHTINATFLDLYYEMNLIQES

[2] = biological target: T2, MERS full length Spike (MERS-CoV, UniProt K9N5Q8 18-1291)
T2 sequence: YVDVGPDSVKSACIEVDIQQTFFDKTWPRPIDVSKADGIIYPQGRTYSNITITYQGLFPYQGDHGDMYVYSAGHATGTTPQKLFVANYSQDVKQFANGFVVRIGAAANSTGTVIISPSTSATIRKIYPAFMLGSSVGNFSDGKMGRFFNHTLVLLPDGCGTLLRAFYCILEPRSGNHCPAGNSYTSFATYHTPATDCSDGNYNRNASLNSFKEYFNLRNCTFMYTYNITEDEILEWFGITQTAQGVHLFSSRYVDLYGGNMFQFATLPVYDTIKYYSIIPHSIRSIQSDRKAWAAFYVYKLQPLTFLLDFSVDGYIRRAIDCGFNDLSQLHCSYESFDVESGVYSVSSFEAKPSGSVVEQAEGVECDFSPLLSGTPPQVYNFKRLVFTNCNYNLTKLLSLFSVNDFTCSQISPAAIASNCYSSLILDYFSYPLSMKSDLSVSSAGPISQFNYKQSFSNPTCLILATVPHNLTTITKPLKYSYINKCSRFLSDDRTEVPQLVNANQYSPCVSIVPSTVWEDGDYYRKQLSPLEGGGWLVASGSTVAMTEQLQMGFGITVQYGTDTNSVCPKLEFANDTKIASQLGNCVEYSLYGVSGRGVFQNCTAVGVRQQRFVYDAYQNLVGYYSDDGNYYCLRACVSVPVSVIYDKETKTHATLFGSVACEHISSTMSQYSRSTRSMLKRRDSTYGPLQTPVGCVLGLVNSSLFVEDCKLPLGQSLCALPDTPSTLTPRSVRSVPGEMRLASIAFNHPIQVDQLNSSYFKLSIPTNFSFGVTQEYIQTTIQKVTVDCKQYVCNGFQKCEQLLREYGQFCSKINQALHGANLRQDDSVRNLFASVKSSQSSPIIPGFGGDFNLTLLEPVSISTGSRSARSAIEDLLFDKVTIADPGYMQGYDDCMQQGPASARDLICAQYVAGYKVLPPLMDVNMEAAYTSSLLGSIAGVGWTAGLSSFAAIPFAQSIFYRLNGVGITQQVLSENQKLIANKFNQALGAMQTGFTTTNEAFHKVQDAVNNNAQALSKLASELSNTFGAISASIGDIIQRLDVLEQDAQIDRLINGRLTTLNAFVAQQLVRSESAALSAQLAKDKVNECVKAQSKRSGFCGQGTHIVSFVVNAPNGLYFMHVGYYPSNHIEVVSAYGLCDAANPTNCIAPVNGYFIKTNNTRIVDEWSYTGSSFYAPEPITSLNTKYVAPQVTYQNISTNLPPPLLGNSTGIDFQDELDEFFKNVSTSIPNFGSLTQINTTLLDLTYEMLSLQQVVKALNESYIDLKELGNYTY

[3] = biological target: SARS-CoV full length Spike (SARS-CoV, UniProt P59594 14-1190)

B1: mAb 1015 (antibody, V domains shown)
VH: EVQLVESGGGLVQPGGSLRLSCAASGFTFSSYWMHWVRQAPGKGLVWVSHINSDGSSTSYADSVKGRFTISRDNAKNTLYLQMNSLRAEDTAVYYCARGLRYFDLDVWGQGTTVTVSS
VL: QSVLTQPPSVSEAPRQRVTISCSGSSSNIGNNAVNWYQQLPGKAPKLLIFYDDLLPSGVSDRFSGSKSGTSASLAISGLQSEDEADYYCAAWDDSLNGGVFGGGTKLTVLG
median fluorescence intensity, fold over isotype control [1]: 1.04 fold over isotype
median fluorescence intensity, fold over isotype control [2]: 0.85 fold over isotype
median fluorescence intensity, fold over isotype control [3]: 0.91 fold over isotype

B2: mAb 1036 (antibody, V domains shown)
VH: QVQLVQSGAEVKKPGSSVKVSCKASGGTLSSYTISWVRQAPGQGLEWMGRIIPILGIADYAQKFQGRVTITADKSTTTAYMDLSSLGSEDTALYYCASAPKDWSSGFDYYYGMDVWGQGTMVTVSS
VL: DIVMTQTPLSLSVTPGQPASISCKSSQSLLNSDGKTYLYWYLQKAGQPPQLLIYEVSNRFSGVPERFSGSGSGTDFTLKISRVEAEDVGVYYCMQSVQLPPYTFGQGTKLEITR
median fluorescence intensity, fold over isotype control [1]: 0.94 fold over isotype
median fluorescence intensity, fold over isotype control [2]: 1.07 fold over isotype
median fluorescence intensity, fold over isotype control [3]: 1.05 fold over isotype

B3: mAb 923 (antibody, V domains shown)
VH: EVQLVESGGGVVRPGGSLRLSCAASGFIFDDYDMTWVRQAPGKGLEWVSGISWNGGNTGYADSVKGRFTISRDNAKNSLYLQMNSLRAEDTALYHCAVIMSPIPRYSGYDWAGGAFDIWGQGTMVTVSS
VL: SSELTQDPAVSVALGQTVRITCQGDSLRSYYASWYQQKPGQVPILVIYDKNNRPSGIPDRFSGSSSGNTASLTITGAQAEDEADYYCNSRDSSGNAVVFGGGTKLTVLG
median fluorescence intensity, fold over isotype control [1]: 1.42 fold over isotype
median fluorescence intensity, fold over isotype control [2]: 1.08 fold over isotype
median fluorescence intensity, fold over isotype control [3]: 773 fold over isotype

B4: mAb 1149 (antibody, V domains shown)
VH: QVQLVQSGAEVKKPGASVKVSCKASGYTFASYDINWVRQATGQGPEWMGWMIPNIGNTGYAQKFQGRVTMTRNTSISTAYMELSSLTSEDTAVYYCARVSRLFNDFGLRHEAPVDFWGQGTRVTVSS
VL: QSVLTQPPSVSGAPGQRVTISCTGSSSNIGAGYDVHWYQQLPGTAPKLLIYGYSSRPSGVPDRFSGSKSGTSASLAITGLQAEDEADYYCQSYDSSLSVLFGGGTKLTVLG
median fluorescence intensity, fold over isotype control [1]: 0.83 fold over isotype
median fluorescence intensity, fold over isotype control [2]: 1.04 fold over isotype
median fluorescence intensity, fold over isotype control [3]: 1.05 fold over isotype

B5: mAb 1037 (antibody, V domains shown)
VH: QITLKESGPTLVKPTQTLTLTCTFSGFSLSTSGVGVGWIRQPPGKALEWLALIYWDDDKRYSPSLKSRLTITKDTSKNQVVLTMTNMDPVDTATYYCAHHTITRINDYWGQGTLVTVSS
VL: QSALTQPASVSGSPGQSITISCTATSSDVGAYNYVSWYQQHPGKAPKLMIYDVSKRPSGVSNRFSGSKSGNTASLTISGLQAEDEADYYCSSYTSSSTVFGGGTKLTVLG
median fluorescence intensity, fold over isotype control [1]: 1.43 fold over isotype
median fluorescence intensity, fold over isotype control [2]: 1.06 fold over isotype
median fluorescence intensity, fold over isotype control [3]: 4.36 fold over isotype

B6: mAb 1075 (antibody, V domains shown)
VH: QVQLVQSGAEVKKPGASVKVSCKVSGYTLIELSMHWVRQAPGKGLEWMGGFDPEDGETIYAQKFQGRVTMTEDTSTDTAYMELSSLRSEDTAVYYCATEWAYYGSGSYLGYWGQGTLVTVSS
VL: EIVMTQSPATLSVSPGERATLSCRASQSVSSNLAWFQQKPGQAPRLLIYGASTRVTVIPARFSGSGSGTEFTLTISSLQSEDFAVYYCQQYNNWPRTFGQGTKVEIKR
median fluorescence intensity, fold over isotype control [1]: 0.93 fold over isotype
median fluorescence intensity, fold over isotype control [2]: 0.89 fold over isotype
median fluorescence intensity, fold over isotype control [3]: 0.91 fold over isotype

B7: mAb 894 (antibody, V domains shown)
VH: QVQLVQSGAEVKKPGASVKVSCKVSGYTLPELSIHWVRQAPGKGLEWMGGFDPENAETIYTQKFQGRLTMTEDTSTDTAYMELSSLRSEDTAMYYCATSFVLMPAALGDYSYYYGMDVWGQGTTVTVSS
VL: not shown
median fluorescence intensity, fold over isotype control [1]: 1.18 fold over isotype
median fluorescence intensity, fold over isotype control [2]: 1.06 fold over isotype
median fluorescence intensity, fold over isotype control [3]: 1.1 fold over isotype

B8: mAb 896 (antibody, V domains shown)
VH: EVQLVESGGGVVQPGGSLRLSCAASGFTFDDYAMHWVRQVPGKGLEWVSLISGDGGSTYYADSVKGRFTISRDNSKNSLYVQMNSLRTEDTALYYCVKDRGGSGWDLNHYYYGMDVWGQGTTVTVSS
VL: DIQLTQSPSFLSASVGDRVTVTCRASQGISSYLAWYQQKPGKAPKLLIYAAYTLQSGVPSRFSGSGSETEFTLTISSLQPEDFATYYCQQVKSYPLTFGGGTKVEIKR
median fluorescence intensity, fold over isotype control [1]: 1.07 fold over isotype
median fluorescence intensity, fold over isotype control [2]: 1.02 fold over isotype
median fluorescence intensity, fold over isotype control [3]: 0.97 fold over isotype

B9: mAb 936 (antibody, V domains shown)
VH: EVQLVESGGGLVQPGRSLTLSCAGSGFTFDDYAMHWVRQAPGKGLEWVSGISWNSGSIGYADSVKGRFTISRDNAKNSLYLQMNSLRAEDTALYYCAKDVSYDSSGYYNNAFDIWGQGTMVTVSS
VL: B8 VL with V21I, Y52S, E68G, V91L, K92Y, L96V, G100Q, K103R, V104L
median fluorescence intensity, fold over isotype control [1]: 1.02 fold over isotype
median fluorescence intensity, fold over isotype control [2]: 0.92 fold over isotype
median fluorescence intensity, fold over isotype control [3]: 0.95 fold over isotype

B10: mAb 1135 (antibody, V domains shown)
VH: EVQLVESGGGLVQPGRSLRLSCAASGLTFEDYAMHWVRQVPGKGLEWVSGISWNSGTIGYADSVKGRFIISRDNAKNSLYLQMRSLRAEDTALYYCAKDVGFGELLYYAFDIWGQGTMVTVSS
VL: QSALTQPASVSGSPGQSITISCTGTSSDVGGYNYVSWYQQHPGKAPKLMIYDVSNRPSGVSNRFSGSKSGNTASLTISGLQAEDEADYYCSSYTSSSTVVFGGGTKLTVLG
median fluorescence intensity, fold over isotype control [1]: 0.83 fold over isotype
median fluorescence intensity, fold over isotype control [2]: 0.93 fold over isotype
median fluorescence intensity, fold over isotype control [3]: 0.92 fold over isotype

B11: mAb 970 (antibody, V domains shown)
VH: EVQLVESGGGLVQPGGSLRLSCAASGFTFSSYWMSWVRQAPGKGLEWVANINKDGSEKYYVDSVKGRFTISRDNAKNSLYLQMNSLRAEDTAVYFCARDYRYFDWLLSQIDLEIDYFDYWGQGTLVTVSS
VL: not shown
median fluorescence intensity, fold over isotype control [1]: 0.88 fold over isotype
median fluorescence intensity, fold over isotype control [2]: 0.87 fold over isotype
median fluorescence intensity, fold over isotype control [3]: 547 fold over isotype
